# B1: GAGE1 (parent)
# chain: QPPEMIGPMRPEQFSDEVEPATPE
# B2: KLHL14 (parent)
# chain: YVIGGRNETGYLSSVECYNLETNE
# Variants of: B1
# Test: protein stability index of a GFP-peptide fusion (GPS, HEK-293T) (PSI 1-6); higher = more stable
# Settings: c terminus: a fixed tail appended
# 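Also: lentivirally expressed fusions sorted by FACS into six bins by GFP to DsRed ratio, PSI derived from sequencing read proportions per bin multiplied by bin number.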
row,Variant,protein stability index
1,T22R,4.61
2,T22V,4.8
3,T22C,4.97
4,T22P,5.08
5,T22D,5.43
6,T22L,4.79
7,T22F,4.46
8,T22K,4.96
9,T22H,4.89
10,T22G,5.15
11,T22N,4.56
12,T22Y,4.84
13,T22W,4.35
14,T22E,5.2
15,T22Q,5.2
16,T22I,4.66
17,T22M,4.79
18,T22A,4.6
19,E17W,4.85
20,E17Y,4.05
21,P23I,4.72
22,P23T,4.81
23,P23D,5.28

row,Variant,protein stability index
1,P23L,4.9
2,P23C,4.57
3,P23V,4.5
4,P23H,5
5,P23W,4.41
6,P23S,5.14
7,P23A,5.02
8,P23R,5.3
9,P23F,4.69
10,P23Y,4.4
11,P23N,5.26
12,P23M,5.05
13,P23Q,5.16
14,P23K,5.1
15,P23E,4.81
16,P23G,5.2
17,E24M,4.37
18,E24V,4.45
19,E24H,4.62
20,E24S,4.65
21,E24G,4.67
22,E24A,4.99
23,E24P,4.65

row,Variant,protein stability index
1,E24Q,4.61
2,E24T,4.98
3,E24I,4.56
4,E24W,4.16
5,E24D,4.51
6,E24K,4.68
7,E24L,4.09
8,E24N,5.18
9,E24R,4.27
10,E24Y,4.57
11,E24C,4.6
12,E24F,4.83
13,V18P,4.85
14,V18E,4.96
15,V18A,5.25
16,V18I,4.91
17,V18W,5.04
18,V18R,4.85
19,V18S,5.44
20,V18Q,5.35
21,V18L,4.59
22,V18T,4.79
23,V18Y,4.22

row,Variant,protein stability index
1,V18M,4.75
2,V18G,4.72
3,V18F,5.13
4,V18N,5.32
5,V18C,4.78
6,V18H,5.26
7,V18D,4.79
8,V18K,5.12
9,A21V,5.34
10,A21M,5.17
11,A21P,4.6
12,A21Y,4.08
13,A21I,4.87
14,A21T,4.83
15,A21G,4.98
16,A21D,5.12
17,A21N,4.29
18,A21E,5.21
19,A21Q,4.79
20,A21L,4.9
21,A21H,4.66
22,A21F,5.05
23,A21S,4.79

row,Variant,protein stability index
1,A21W,4.7
2,A21C,4.59
3,A21R,5
4,A21K,5.32
5,P20H,5.46
6,P20I,4.96
7,P20M,4.65
8,P20T,4.91
9,P20A,4.44
10,P20R,5
11,P20L,5.27
12,P20F,4.98
13,P20E,4.92
14,P20D,5.25
15,P20W,3.7
16,P20K,4.79
17,P20S,5.18
18,P20G,5.36
19,P20Q,5.21
20,P20Y,5.13
21,P20C,4.84
22,P20N,4.75
23,E19A,5.03

row,Variant,protein stability index
1,E19D,5.25
2,E19R,3.98
3,E19P,4.43
4,E19G,4.86
5,E19I,5.05
6,E19S,5.18
7,E19F,4.95
8,E19W,4.75
9,E19V,4.09
10,E19M,4.83
11,E19K,4.42
12,E19L,4.04
13,E19T,5.17
14,E19Y,4.65
15,E19N,5.06
16,E19Q,5.33
17,E19C,4.62
18,E19H,5.04

# Variants of: B2
# Test: as above
# Settings: c terminus: a fixed tail appended
row,Variant,protein stability index
1,R6P,2.51
2,R6N,2.2
3,Y18N,2.61
4,Y18F,2.1
5,C17L,2.56
6,C17H,2.08
7,C17F,1.66
8,S14A,1.7
9,E21M,1.74
10,E21V,1.54
11,L20S,2.18
12,G5T,2.33
13,T9V,2.07
14,T9L,1.69
15,T22R,2.62
16,E8R,1.95
17,I3L,1.84

row,Variant,protein stability index
1,I3N,1.81
2,I3S,1.61
3,G10C,2.58
4,N7W,1.63
5,N7E,2.59
6,L12I,2.25
7,E24A,1.64
8,N19T,2.17
9,V2Y,3.4
10,Y1T,4.71
11,Y1M,3.55
12,Y1H,4.61
13,N23Y,1.75
14,N23W,1.74
15,N23T,2.15
16,V15E,2.69
17,V15Y,1.5

# From the supplement of paper PMC10567573
